T1: APBA1_1, Q02410
T1 sequence (Q02410 651-752, limits assumed, looked up): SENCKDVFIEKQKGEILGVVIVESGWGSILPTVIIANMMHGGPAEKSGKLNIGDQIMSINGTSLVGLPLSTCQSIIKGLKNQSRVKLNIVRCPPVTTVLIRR

T2: APBA2_2, Q99767
T2 sequence (Q99767 654-744, limits assumed, looked up): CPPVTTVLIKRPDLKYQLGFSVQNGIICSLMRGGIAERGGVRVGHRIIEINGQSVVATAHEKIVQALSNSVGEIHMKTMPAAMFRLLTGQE

T3: DFNB31_2, Q9P202
T3 sequence (Q9P202 274-371, limits assumed, looked up): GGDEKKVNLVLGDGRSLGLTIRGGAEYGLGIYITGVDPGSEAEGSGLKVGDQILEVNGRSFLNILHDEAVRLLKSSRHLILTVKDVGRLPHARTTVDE

T4: DFNB31_3, Q9P202
T4 sequence (Q9P202 811-907, limits assumed, looked up): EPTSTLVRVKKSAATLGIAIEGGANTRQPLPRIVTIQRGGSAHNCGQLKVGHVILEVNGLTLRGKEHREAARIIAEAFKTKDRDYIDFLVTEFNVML

T5: GRIP1_3, Q9Y3R0
T5 sequence (Q9Y3R0 247-346, limits assumed, looked up): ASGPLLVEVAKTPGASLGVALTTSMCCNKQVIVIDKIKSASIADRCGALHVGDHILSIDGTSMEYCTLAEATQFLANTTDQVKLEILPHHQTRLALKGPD

T6: GRIP1_7, Q9Y3R0
T6 sequence (Q9Y3R0 999-1096, limits assumed, looked up): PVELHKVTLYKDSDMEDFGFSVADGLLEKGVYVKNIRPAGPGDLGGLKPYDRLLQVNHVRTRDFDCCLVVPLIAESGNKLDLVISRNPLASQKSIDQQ

T7: MPDZ_12, O75970
T7 sequence (O75970 1857-1958, limits assumed, looked up): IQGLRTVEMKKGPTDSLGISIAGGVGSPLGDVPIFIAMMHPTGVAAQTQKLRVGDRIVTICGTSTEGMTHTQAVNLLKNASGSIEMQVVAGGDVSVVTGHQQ

T8: MPP6, Q9NZW5
T8 sequence (Q9NZW5 125-219, limits assumed, looked up): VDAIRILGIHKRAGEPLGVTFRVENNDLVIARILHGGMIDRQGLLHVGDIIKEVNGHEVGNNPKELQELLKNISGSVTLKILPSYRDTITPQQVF

T9: PDZD7_3, Q9H5P4
T9 sequence (Q9H5P4 857-944, limits assumed, looked up): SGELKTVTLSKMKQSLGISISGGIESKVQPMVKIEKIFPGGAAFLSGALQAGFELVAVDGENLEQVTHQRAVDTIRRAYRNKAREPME

T10: PTPN13_1, Q12923
T10 sequence (Q12923 1088-1188, limits assumed, looked up): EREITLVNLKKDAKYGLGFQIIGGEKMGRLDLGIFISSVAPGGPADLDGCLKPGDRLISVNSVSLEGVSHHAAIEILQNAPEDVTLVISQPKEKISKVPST

T11: SHANK1, Q9Y566
T11 sequence (Q9Y566 658-767, limits assumed, looked up): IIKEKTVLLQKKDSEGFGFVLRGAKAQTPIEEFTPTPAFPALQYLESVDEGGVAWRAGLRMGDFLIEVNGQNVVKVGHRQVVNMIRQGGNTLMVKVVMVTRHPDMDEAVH

T12: SYNJ2BP, P57105
T12 sequence (P57105 8-110, limits assumed, looked up): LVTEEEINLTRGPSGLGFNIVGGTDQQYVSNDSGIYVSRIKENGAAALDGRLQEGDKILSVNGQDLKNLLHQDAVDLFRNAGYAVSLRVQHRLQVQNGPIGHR


Key:
Experiment in all cases: holdup assay
Set-up in all cases: key: below the threshold = too weak to quantify, mostly under pKd 3.1 to 4
Conditions in all cases: plain residues with an end cap or a label only (N-terminal biotin on a linker: ado-ado)
[1] = target: T1, APBA1_1, Q02410
[2] = target: T2, APBA2_2, Q99767
[3] = target: CASK, O14936
Sequence of CASK, O14936 (O14936 487-570): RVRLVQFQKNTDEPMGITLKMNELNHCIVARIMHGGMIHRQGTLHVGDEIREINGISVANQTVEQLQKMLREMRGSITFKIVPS

[4] = target: T3, DFNB31_2, Q9P202
[5] = target: T4, DFNB31_3, Q9P202
[6] = target: DLG4_2, P78352
Sequence of DLG4_2, P78352 (P78352 155-259): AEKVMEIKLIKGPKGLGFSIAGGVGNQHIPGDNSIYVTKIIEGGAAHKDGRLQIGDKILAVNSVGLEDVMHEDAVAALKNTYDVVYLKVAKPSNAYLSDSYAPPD

[7] = target: DLG4_3, P78352
Sequence of DLG4_3, P78352 (P78352 306-403): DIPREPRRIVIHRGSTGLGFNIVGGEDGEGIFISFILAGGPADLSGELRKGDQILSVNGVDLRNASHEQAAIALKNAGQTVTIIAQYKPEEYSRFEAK

[8] = target: FRMPD2_2, Q68DX3
Sequence of FRMPD2_2, Q68DX3 (Q68DX3 944-1038): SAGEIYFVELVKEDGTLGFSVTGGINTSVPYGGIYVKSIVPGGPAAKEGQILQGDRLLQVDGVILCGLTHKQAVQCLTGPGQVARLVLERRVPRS

[9] = target: GOPC, Q9HD26
[10] = target: GRID2IP_1, A4D2P6
Sequence of GRID2IP_1, A4D2P6 (A4D2P6 1-87): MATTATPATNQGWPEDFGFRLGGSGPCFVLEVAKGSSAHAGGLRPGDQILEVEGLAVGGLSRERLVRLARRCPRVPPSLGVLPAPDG

[11] = target: T5, GRIP1_3, Q9Y3R0
[12] = target: T6, GRIP1_7, Q9Y3R0
[13] = target: GRIP2_3, Q9C0E4
Sequence of GRIP2_3, Q9C0E4 (Q9C0E4 238-339): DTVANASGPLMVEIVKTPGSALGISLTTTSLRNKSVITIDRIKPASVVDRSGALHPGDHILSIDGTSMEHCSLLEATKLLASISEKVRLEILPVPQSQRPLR

[14] = target: Inadl_8, Q8NI35
Sequence of Inadl_8, Q8NI35 (Q8NI35 1425-1530): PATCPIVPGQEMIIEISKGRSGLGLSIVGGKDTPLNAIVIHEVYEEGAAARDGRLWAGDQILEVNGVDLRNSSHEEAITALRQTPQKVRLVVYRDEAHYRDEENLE

[15] = target: MAGI1_1, Q96QZ7
Sequence of MAGI1_1, Q96QZ7 (Q96QZ7 1-106): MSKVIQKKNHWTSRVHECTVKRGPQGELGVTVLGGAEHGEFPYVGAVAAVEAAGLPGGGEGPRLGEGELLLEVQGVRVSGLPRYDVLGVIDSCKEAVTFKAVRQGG

[16] = target: MAGI1_2, Q96QZ7
Sequence of MAGI1_2, Q96QZ7 (Q96QZ7 456-580): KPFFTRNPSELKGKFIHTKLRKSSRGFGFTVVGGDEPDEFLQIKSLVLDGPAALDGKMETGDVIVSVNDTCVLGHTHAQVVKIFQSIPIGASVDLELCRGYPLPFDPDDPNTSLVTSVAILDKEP

[17] = target: MAST1, Q9Y2H9
Sequence of MAST1, Q9Y2H9 (Q9Y2H9 962-1065): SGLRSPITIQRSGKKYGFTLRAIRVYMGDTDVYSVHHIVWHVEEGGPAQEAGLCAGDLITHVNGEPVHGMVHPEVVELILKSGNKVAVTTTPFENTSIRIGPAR

[18] = target: T7, MPDZ_12, O75970
[19] = target: T8, MPP6, Q9NZW5
[20] = target: NHERF2_2, Q15599
Sequence of NHERF2_2, Q15599 (Q15599 142-238): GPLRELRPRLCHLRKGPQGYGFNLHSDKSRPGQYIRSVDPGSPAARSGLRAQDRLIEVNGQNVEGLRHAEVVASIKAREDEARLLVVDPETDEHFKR

[21] = target: T9, PDZD7_3, Q9H5P4
[22] = target: PDZRN4_1, Q6ZMN7
Sequence of PDZRN4_1, Q6ZMN7 (Q6ZMN7 213-318): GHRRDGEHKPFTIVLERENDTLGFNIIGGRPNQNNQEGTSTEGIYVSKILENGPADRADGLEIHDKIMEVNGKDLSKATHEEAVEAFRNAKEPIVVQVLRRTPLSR

[23] = target: T10, PTPN13_1, Q12923
[24] = target: T11, SHANK1, Q9Y566
[25] = target: T12, SYNJ2BP, P57105
[26] = target: TJP1_3, Q07157
Sequence of TJP1_3, Q07157 (Q07157 416-512): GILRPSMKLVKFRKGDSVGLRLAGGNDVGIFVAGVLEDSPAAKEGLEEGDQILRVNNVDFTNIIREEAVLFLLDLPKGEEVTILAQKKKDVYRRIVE

Binder | pKd [1] | pKd [2] | pKd [3] | pKd [4] | pKd [5] | pKd [6] | pKd [7] | pKd [8] | pKd [9] | pKd [10] | pKd [11] | pKd [12] | pKd [13] | pKd [14] | pKd [15] | pKd [16] | pKd [17] | pKd [18] | pKd [19] | pKd [20] | other results
NLSIEKETKL [ASNSD1, Q9NWL6] | below the threshold | below the threshold | below the threshold | 3.94 | 3.52 | 3.54 | below the threshold | below the threshold | below the threshold | below the threshold | below the threshold | below the threshold | below the threshold | below the threshold | below the threshold | below the threshold | 4.73 | 3.56 | below the threshold | 4.76 | pKd [21]: 4.68; pKd [22]: 4.83; pKd [23]: below the threshold; pKd [24]: 4.52; pKd [25]: 3.85; pKd [26]: below the threshold
SKENVQETQI [LRRC4B, Q9NT99] | 3.48 | below the threshold | below the threshold | below the threshold | 3.47 | 4.55 | below the threshold | 3.92 | 3.99 | below the threshold | below the threshold | below the threshold | below the threshold | below the threshold | below the threshold | below the threshold | 3.97 | 3.48 | below the threshold | 3.88 | pKd [21]: 5.39; pKd [22]: 4.18; pKd [23]: below the threshold; pKd [24]: 3.98; pKd [25]: 4.6; pKd [26]: below the threshold
GQEEQVTTRL [TRPC5, Q9UL62] | below the threshold | below the threshold | below the threshold | below the threshold | 3.8 | below the threshold | below the threshold | below the threshold | 4.83 | below the threshold | below the threshold | below the threshold | below the threshold | below the threshold | below the threshold | below the threshold | 4.8 | below the threshold | below the threshold | 4.71 | pKd [21]: 4.89; pKd [22]: 3.64; pKd [23]: below the threshold; pKd [24]: 5.61; pKd [25]: below the threshold; pKd [26]: below the threshold
SSALYGESDL [ACTN2, P35609] | below the threshold | 3.47 | below the threshold | below the threshold | 3.64 | 3.61 | below the threshold | below the threshold | below the threshold | below the threshold | below the threshold | below the threshold | below the threshold | below the threshold | below the threshold | below the threshold | 4.18 | below the threshold | below the threshold | 4.35 | pKd [21]: below the threshold; pKd [22]: 3.62; pKd [23]: below the threshold; pKd [24]: 3.91; pKd [25]: 3.87; pKd [26]: below the threshold
EVNETDDTKM [KCNJ1, P48048] | below the threshold | below the threshold | below the threshold | below the threshold | below the threshold | 3.59 | below the threshold | below the threshold | below the threshold | below the threshold | below the threshold | below the threshold | 3.69 | below the threshold | below the threshold | below the threshold | 4.46 | below the threshold | below the threshold | 4.84 | pKd [21]: 4.38; pKd [22]: below the threshold; pKd [23]: below the threshold; pKd [24]: 3.73; pKd [25]: 4.39; pKd [26]: below the threshold
